Results as given in the supplement of paper PMC7125110.
± gives the standard error. Fewer inactive variants are shown than the library holds.

B1: glmS ribozyme (parent)
chain: AUAAAAGCGCCAGAACUACAGAAAUGUAGUUGACGAGGAGGAGGUUUAUCGAAUUUUCGGCGGAUGCCUCCAAA

Variants of: B1
Assay: self-cleavage kobs at 10000 uM GlcN6P; higher = faster cleavage; RNA array
Conditions: with glucosamine-6-phosphate
How it was run: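 Over ~14 h at 37 °C, tiles were imaged as glucosamine-6-phosphate (40 μM to 10 mM) in HEPES/KCl/Mg(OAc)2 buffer flowed across sequenced MiSeq chips. The chips carried barcoded ribozyme variants transcribed in situ by E. coli RNA polymerase and tracked with a hybridised Cy3 probe. After normalisation to baseline and to non-cleaving reference variants, one- or two-exponential decay fits of per-tile medians gave kobs. kcat and KM followed from weighted Michaelis–Menten fits across concentrations.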

Variant | self-cleavage kobs at 10000 uM GlcN6P
C50U G60U C61A | < 1e-05 s⁻¹
G13U A42G C50U | < 1e-05 s⁻¹
A6G C50G C68G | 2.86e-05 ± 1.1e-05 s⁻¹
A1C U2A A3U G7A C8G G9C C10G C16G | < 1e-05 s⁻¹
C11U G38U C50A | < 1e-05 s⁻¹
G40U G62U C68G | < 1e-05 s⁻¹
G9A A39C G41A A48C U49A | < 1e-05 s⁻¹
C8U A36U U45A | < 1e-05 s⁻¹
G38A G59C U65C C70A | < 1e-05 s⁻¹
C34A A42C U65A | < 1e-05 s⁻¹
U54A U57G | 5.94e-05 ± 1.1e-05 s⁻¹
G7A C8G G9C G29U G35C G37A | < 1e-05 s⁻¹
G44C U65G C67U | 0.000247 ± 8.5e-05 s⁻¹
A14U U45G C61U | < 1e-05 s⁻¹
C11G G13U G37C | < 1e-05 s⁻¹
A6C G32C G41C C58U U65A | < 1e-05 s⁻¹
G9A A36U U45A A64C | < 1e-05 s⁻¹
C10A A12G G35C U56A U69A | 0.000264 ± 7.7e-05 s⁻¹
A36C U57A | < 1e-05 s⁻¹
A64G G66C C67A | 0.000252 ± 7.2e-05 s⁻¹
C50A G59C C70U | < 1e-05 s⁻¹
A39C G44C C68A | < 1e-05 s⁻¹
G37A G40A C58U G66C | < 1e-05 s⁻¹
C16G G32C G43U U47G U56A | < 1e-05 s⁻¹

Variant | self-cleavage kobs at 10000 uM GlcN6P
G9C G32C C71U | < 1e-05 s⁻¹
A39C G40A C58G | < 1e-05 s⁻¹
G38U C50G C67A C71G | 0.000322 ± 6.1e-05 s⁻¹
G9C U54G | < 1e-05 s⁻¹
A12G U57C C58G | 2.94e-05 ± 1.4e-05 s⁻¹
G9A A15G G35A A42U C70U | < 1e-05 s⁻¹
A6U A12U A53G C67G | 8.82e-05 ± 1.8e-05 s⁻¹
U30A G38C | < 1e-05 s⁻¹
A15U C58U G59U | < 1e-05 s⁻¹
A36C A39U C67U | < 1e-05 s⁻¹
G32U G43U U69C | < 1e-05 s⁻¹
A33U A39C A48C | < 1e-05 s⁻¹
C10U C16U A39C U65C | < 1e-05 s⁻¹
C10U C11U G66C | < 1e-05 s⁻¹
A33G A42C U47C G60A | < 1e-05 s⁻¹
C8G C16U C68A | < 1e-05 s⁻¹
G9U U30C U31C G43A U65A C68U C71A | < 1e-05 s⁻¹
U45A U54A C70A | 8.25e-05 ± 1.9e-05 s⁻¹
G41U C67G C68A | 0.000314 ± 0.00012 s⁻¹
C34A G66U C67G | < 1e-05 s⁻¹
A14C G44C A52C U65A | < 1e-05 s⁻¹
A15U C16A A39U | 0.000273 ± 6.1e-05 s⁻¹
A6U U45G U46C | 4.58e-05 ± 1.7e-05 s⁻¹
G29U U47G C67G | 0.000103 ± 1.9e-05 s⁻¹

Variant | self-cleavage kobs at 10000 uM GlcN6P
A39C G59A C68A | < 1e-05 s⁻¹
A12G A14C C67U | 7.11e-05 ± 1.5e-05 s⁻¹
A6U G51C G63C U69G | < 1e-05 s⁻¹
U30C U31G A33G U69G | < 1e-05 s⁻¹
A36C G38U A39C G62U | < 1e-05 s⁻¹
G13U A36U G44U | < 1e-05 s⁻¹
G32C G38U A42C G43C A52C | < 1e-05 s⁻¹
G13U U31G A64G | 0.00021 ± 5.2e-05 s⁻¹
A12C G32A G38A | < 1e-05 s⁻¹
C11U U31G U49A G62A | < 1e-05 s⁻¹
G40A U45C U65G C67G | 0.00034 ± 0.00012 s⁻¹
G38A U49A G66U | < 1e-05 s⁻¹
U57A G60A C61A | < 1e-05 s⁻¹
A14U A36U C50U C70A | 7.4e-05 ± 2.1e-05 s⁻¹
U31G G38U A53U | < 1e-05 s⁻¹
A39U G63U U65A | < 1e-05 s⁻¹
G43A U55G U57A U65G | < 1e-05 s⁻¹
A36U A52U U65G U69C | < 1e-05 s⁻¹
U30A G32A G41C G51C C61A C71U | < 1e-05 s⁻¹
A33U G41C A52U A53C | < 1e-05 s⁻¹
G9U A36G G43U U55G C68U | < 1e-05 s⁻¹
A42G U49A C50G | < 1e-05 s⁻¹
C11G C50G C68G C71U | 8.16e-05 ± 1.7e-05 s⁻¹
A14U U30G U31C | 0.000695 ± 0.00016 s⁻¹

Variant | self-cleavage kobs at 10000 uM GlcN6P
A12G G63C C70U | < 1e-05 s⁻¹
C11A U55A U56C | 2.5e-05 ± 1.1e-05 s⁻¹
G7U G51A U56G | < 1e-05 s⁻¹
U47A U54G U55A C70A | 0.000105 ± 3e-05 s⁻¹
G38A G51A | < 1e-05 s⁻¹
U56C A64C U65A | < 1e-05 s⁻¹
C10G G32U G44A U54A C68A | < 1e-05 s⁻¹
C16U G32A U57C | 2.6e-05 ± 1.3e-05 s⁻¹
A12G A42C U69A | 0.000102 ± 1.5e-05 s⁻¹
C50G A53C C71A | 6.73e-05 ± 2.7e-05 s⁻¹
G40C A64G C71U | 0.00117 ± 0.00019 s⁻¹
U31C G38C U45A C50A C58U | < 1e-05 s⁻¹
G29U A39C G40A G66A | 6.36e-05 ± 1.3e-05 s⁻¹
U30C A36C U49A | < 1e-05 s⁻¹
C8G A15U A39U G51A A52G G60U | < 1e-05 s⁻¹
C8A A12G A39G U45A A48C U55C | < 1e-05 s⁻¹
G29U U54A C71U | 0.00223 ± 0.00064 s⁻¹
C16A G29U C58A | 0.000415 ± 0.00011 s⁻¹
G43A C71G | < 1e-05 s⁻¹
U46C U49A | < 1e-05 s⁻¹
A33U U45A U46G | 0.000433 ± 5.7e-05 s⁻¹
C10A A36U G59A G60A | < 1e-05 s⁻¹
G40A C67A C70A | 0.0001 ± 2.9e-05 s⁻¹
C11U U47A U69A | 4.5e-05 ± 1.5e-05 s⁻¹

Variant | self-cleavage kobs at 10000 uM GlcN6P
A14C U55G C67G | 0.000215 ± 3.8e-05 s⁻¹
G29U G35C G43C G59A | < 1e-05 s⁻¹
U31A A36G U49G C50U C58A | < 1e-05 s⁻¹
G13C C71A | 4.74e-05 ± 1.4e-05 s⁻¹
G43A A53U G59C G60U | < 1e-05 s⁻¹
G29C G32U C70A | 0.000104 ± 2.2e-05 s⁻¹
G43A G51U G63C | < 1e-05 s⁻¹
A12U G41A U54C | 0.000963 ± 0.00021 s⁻¹
G43C G62C A64G C68G | < 1e-05 s⁻¹
C8A A14U A39C | < 1e-05 s⁻¹
G32U A52G C70A | 8.27e-05 ± 2.1e-05 s⁻¹
C11G C61G | < 1e-05 s⁻¹
C11A A53C | 2.2e-05 ± 1.1e-05 s⁻¹
A14U A36G A64G C70G | < 1e-05 s⁻¹
G29C A64G C70U | 3.15e-05 ± 1.4e-05 s⁻¹
C10G U57G C67A | < 1e-05 s⁻¹
U56C G66A C71U | 0.000503 ± 0.00011 s⁻¹
G38A A52U U56G | < 1e-05 s⁻¹
A14C U30G A33G G37A C68G | < 1e-05 s⁻¹
C11U A12G A14U | 0.000156 ± 3.3e-05 s⁻¹
A12G A14U C58A | 0.000276 ± 5.2e-05 s⁻¹
A48U A52G U55A A64G | 4.66e-05 ± 1.1e-05 s⁻¹
G13A G32C U69G | 5.76e-05 ± 2.1e-05 s⁻¹
A33C A36G U47G G51A | < 1e-05 s⁻¹

Variant | self-cleavage kobs at 10000 uM GlcN6P
A14U G32U U46C | 4.16e-05 ± 1.4e-05 s⁻¹
U31A C58U | 4.45e-05 ± 6.1e-06 s⁻¹
U47G U54G G62U | < 1e-05 s⁻¹
G7A A33G C50A U69A C70U | 9.88e-05 ± 1.8e-05 s⁻¹
G13U G38C G62A | < 1e-05 s⁻¹
G9C U46A C58U | < 1e-05 s⁻¹
U30A A33G C61G C70A | < 1e-05 s⁻¹
A14C U65G C68U | 0.000226 ± 4.7e-05 s⁻¹
A14G U49G U55C | 0.00199 ± 0.00057 s⁻¹
C50G G63U U65A U69G | 0.000121 ± 2.7e-05 s⁻¹
C34A G63U C70A | < 1e-05 s⁻¹
U57C U65C C71A | < 1e-05 s⁻¹
G35C G44A U46G | < 1e-05 s⁻¹
C11A A48G C50A C70A | 5.38e-05 ± 1.9e-05 s⁻¹
C34A G41A C68G | < 1e-05 s⁻¹
A33U G35C C71G | < 1e-05 s⁻¹
G38C G44C A53U G62C | < 1e-05 s⁻¹
G37C A42C U57A | < 1e-05 s⁻¹
G9U G62U | < 1e-05 s⁻¹
G38A G43C U65G | < 1e-05 s⁻¹
C16U A53U U65G | 0.00246 ± 0.00058 s⁻¹
A12U C16A G35A A42C G59U C71U | < 1e-05 s⁻¹
C16G U45G U46A | 0.000584 ± 0.00015 s⁻¹
G35C A48U C70G | < 1e-05 s⁻¹

Variant | self-cleavage kobs at 10000 uM GlcN6P
C11A U54G A64G U69G | 9.78e-05 ± 2.2e-05 s⁻¹
G38C U49A G51U C71U | < 1e-05 s⁻¹
C10A C50U G59A | < 1e-05 s⁻¹
G32A A52G C70U | 0.000145 ± 1.9e-05 s⁻¹
A12U U46G A48G | 9.42e-05 ± 2.1e-05 s⁻¹
U30G G35A G40C C68G | < 1e-05 s⁻¹
G7C G32C G41C | < 1e-05 s⁻¹
A14C G59C G62C | < 1e-05 s⁻¹
A15G C61G G62C | < 1e-05 s⁻¹
U30G A53U U69A | 4.29e-05 ± 1.8e-05 s⁻¹
A12G C58A C70G | 3.02e-05 ± 1.3e-05 s⁻¹
C34U G38C G60C | < 1e-05 s⁻¹
A42C G44U G66U | < 1e-05 s⁻¹
G41U U69A | 3.54e-05 ± 1.5e-05 s⁻¹
C16G U46G C67U | 0.000334 ± 6.9e-05 s⁻¹
C58G G62U | < 1e-05 s⁻¹
G43C U49C | < 1e-05 s⁻¹
U30G G35U G43C | < 1e-05 s⁻¹
U54G G63C U65C C68G C71G | 3.78e-05 ± 1.6e-05 s⁻¹
A14G C34A G38A C67A | < 1e-05 s⁻¹
A14C U31C G41A | 7.28e-05 ± 1.8e-05 s⁻¹
G29U A48G G51A | < 1e-05 s⁻¹
A36C U56C | < 1e-05 s⁻¹
